Assay results from US20050265970A1.

Target: GST-MKK7 (GST-JNKK2; human JNKK2 in pGEX-2T) (human) (UniProt O14733)
Assay: in vitro pull-down with purified GST-MKK7 and increasing His6/T7-tagged protein, anti-T7 Western blot; JIP1 under non-saturating conditions

GST-MKK7 (GST-JNKK2; human JNKK2 in pGEX-2T) (human), sequence (O14733 1-401 Q94H/Q133P): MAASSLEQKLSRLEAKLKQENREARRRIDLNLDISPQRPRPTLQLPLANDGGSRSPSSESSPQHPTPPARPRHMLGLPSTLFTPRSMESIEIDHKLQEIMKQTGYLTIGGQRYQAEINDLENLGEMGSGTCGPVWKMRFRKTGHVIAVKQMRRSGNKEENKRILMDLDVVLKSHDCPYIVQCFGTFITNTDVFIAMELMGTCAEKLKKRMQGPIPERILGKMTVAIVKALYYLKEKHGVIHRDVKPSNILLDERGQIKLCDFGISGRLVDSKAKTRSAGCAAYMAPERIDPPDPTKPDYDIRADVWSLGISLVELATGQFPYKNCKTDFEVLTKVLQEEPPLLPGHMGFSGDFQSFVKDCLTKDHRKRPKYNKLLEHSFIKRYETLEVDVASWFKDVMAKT

half maximum binding (HMB): > 650 nM
Substance: His6/T7-JIP1 (MKK7-binding domain of JIP1b, pET28)
